In the Human Domainome abundance scans (Beltran et al. 2025) one finds abundance fitness data, which are given here for 43 variants.

± gives the uncertainty stated by the source.

B1: Ankyrin repeat and SAM domain-containing protein 6, residues 774 to 836; numbered along this chain, Q68DC2 (parent)
chain: DEDELTGILKKLSLEKYQPIFEEQEVDMEAFLTLTDGDLKELGIKTDGSRQQILAAISELNAG

The data set covers variants of B1. Description: abundance fitness (aPCA) (normalised: wild type 0, dead -1); higher = more abundant; growth selection in yeast, the domain comes from the species named. To be noted: Homo sapiens.
For the variant DEDELTGILKKLSLEKYQPIFEEQEVDMEAFLTLTDGDLKELGIKTDGSRQQILYAISELNAG [A55Y], the abundance fitness is -0.128 ± 0.049.
Under DEDELTGILKKLSLEKYQPSFEEQEVDMEAFLTLTDGDLKELGIKTDGSRQQILAAISELNAG [I20S] stands -0.301 ± 0.062.
As for DEDELTGILKKLSLEKYQPDFEEQEVDMEAFLTLTDGDLKELGIKTDGSRQQILAAISELNAG [I20D], the abundance fitness is -0.091 ± 0.15.
Under DEDELTGILKKLSLEKYQPRFEEQEVDMEAFLTLTDGDLKELGIKTDGSRQQILAAISELNAG [I20R] stands -0.046 ± 0.05; under DEDELTGILKKLSLEKYQPYFEEQEVDMEAFLTLTDGDLKELGIKTDGSRQQILAAISELNAG [I20Y], -0.273 ± 0.072.
With DEDELTGILKKLSLEKYQPAFEEQEVDMEAFLTLTDGDLKELGIKTDGSRQQILAAISELNAG [I20A], the abundance fitness is -0.111 ± 0.059.
With DEDELTGILKKLSLEIYQPIFEEQEVDMEAFLTLTDGDLKELGIKTDGSRQQILAAISELNAG [K16I], the abundance fitness was -0.408 ± 0.18.
Consider DEDELTGILKKLSLEHYQPIFEEQEVDMEAFLTLTDGDLKELGIKTDGSRQQILAAISELNAG [K16H], for which the abundance fitness turned out to be 0.011 ± 0.19.
With DEDELTGILKKLSLMKYQPIFEEQEVDMEAFLTLTDGDLKELGIKTDGSRQQILAAISELNAG [E15M], the abundance fitness was -0.123 ± 0.085.
Turning to DEDELTGILKKLSLCKYQPIFEEQEVDMEAFLTLTDGDLKELGIKTDGSRQQILAAISELNAG [E15C], the abundance fitness was -0.343 ± 0.057.
Under DEDELTGILKKLSLEKYQPIFEEQEVDMEAFLTLTCGDLKELGIKTDGSRQQILAAISELNAG [D36C] stands -0.487 ± 0.082.
Under DEDELTGILKKLSLEKYQPIFEEQEVDMEAFLTLTSGDLKELGIKTDGSRQQILAAISELNAG [D36S] stands -0.392 ± 0.044; under DEDELTGILKKLSIEKYQPIFEEQEVDMEAFLTLTDGDLKELGIKTDGSRQQILAAISELNAG [L14I], -0.332 ± 0.095.
Regarding DEDELTGILKKLSFEKYQPIFEEQEVDMEAFLTLTDGDLKELGIKTDGSRQQILAAISELNAG [L14F], the abundance fitness was -0.583 ± 0.12.
In the case of DEDELTGILKKLSLEKYQPIFEEQEVDMEAFLTLTDGDLKELGIKTDGCRQQILAAISELNAG [S49C], the abundance fitness came out at 0.096 ± 0.059.
Consider DEDELTGILKKLSLEKYQPIFEEQEVDMEAFLTLTDGDLKELGIKTDGSRQQILAIISELNAG [A56I], for which the abundance fitness is -0.486 ± 0.14.
For the variant DEDELTGILKKLVLEKYQPIFEEQEVDMEAFLTLTDGDLKELGIKTDGSRQQILAAISELNAG [S13V], the abundance fitness is -0.567 ± 0.094.
For DEDELTGILKKLRLEKYQPIFEEQEVDMEAFLTLTDGDLKELGIKTDGSRQQILAAISELNAG [S13R], the abundance fitness was -0.04 ± 0.048.
With DEDELTGILKKLALEKYQPIFEEQEVDMEAFLTLTDGDLKELGIKTDGSRQQILAAISELNAG [S13A], the abundance fitness was -0.067 ± 0.058.
As for NEDELTGILKKLSLEKYQPIFEEQEVDMEAFLTLTDGDLKELGIKTDGSRQQILAAISELNAG [D1N], the abundance fitness was found to be 0.113 ± 0.12.
In the case of DEDELTGILKKLSLEKYQPIFEEQEVDMEAFLTLTDGDGKELGIKTDGSRQQILAAISELNAG [L39G], the abundance fitness is -0.699 ± 0.052.
Turning to DEDELTGILKKLSLEKYQPIFEEQEVDMEAFLTLTDGDHKELGIKTDGSRQQILAAISELNAG [L39H], the abundance fitness is -0.751 ± 0.16.
In the case of DEDELTGILKKLSLEKYQPIFEEQEVDMEAFLTLTDGDLKELGIFTDGSRQQILAAISELNAG [K45F], the abundance fitness is -0.143 ± 0.11.
With DEDELTGILKKLSLEKYQPIPEEQEVDMEAFLTLTDGDLKELGIKTDGSRQQILAAISELNAG [F21P], the abundance fitness is -0.65 ± 0.098.
On to DEDELTGILKKLSLEKYQPIEEEQEVDMEAFLTLTDGDLKELGIKTDGSRQQILAAISELNAG [F21E], for which the abundance fitness was -0.36 ± 0.092.
As to DEDELTGILKKPSLEKYQPIFEEQEVDMEAFLTLTDGDLKELGIKTDGSRQQILAAISELNAG [L12P], the abundance fitness was -1.16 ± 0.16.
With DEDELTGILKKLSLEKYQPIFEEQEVDMEAFLTLTDGDLKELGIKTDGSRQQILAAESELNAG [I57E], the abundance fitness is -0.414 ± 0.046.
As to DEDELTGILKKLSLEKYQPIFEEQEVDMEAFLTLTDGDLKELGGKTDGSRQQILAAISELNAG [I44G], the abundance fitness is -0.592 ± 0.073.
With DEDELTGILKKLSLEKYQPIFEEQEVDMEAFLTLTDGDLKELGIKTDGSHQQILAAISELNAG [R50H], the abundance fitness is -0.527 ± 0.11.
Under DEDELTGILKKLSLEKYQPIFEEQEVDMEAFLTKTDGDLKELGIKTDGSRQQILAAISELNAG [L34K] stands -0.309 ± 0.064.
For DEDELTGILKKLSLEKYQPIFEEQEVDMEAFLTSTDGDLKELGIKTDGSRQQILAAISELNAG [L34S], the abundance fitness is -0.457 ± 0.057.
In the case of DEDELTGILKKLSLEKYQPIFEEQEVDMEAFLTRTDGDLKELGIKTDGSRQQILAAISELNAG [L34R], the abundance fitness was -0.523 ± 0.051.
The value for DEDELTGILKKLSLEKYQPIFEEQEVDMEAFLTTTDGDLKELGIKTDGSRQQILAAISELNAG [L34T] was -0.556 ± 0.073.
As to DEDELTGILKKLSLEKYQPIFEEQEVDMEAFLTLTDGDLKELGIKTDGSRQQILAAIIELNAG [S58I], the abundance fitness is -0.533 ± 0.088.
As to DEDELTGILKKLSLEKYQPIFEEQEVDMEAFLTLTDGDLKELGIKTDGSRQQILAAIYELNAG [S58Y], the abundance fitness was -0.466 ± 0.1.
Regarding DEDELTGILKKLSLEKYQPIFEEQEVDMEAFLTLTDGWLKELGIKTDGSRQQILAAISELNAG [D38W], the abundance fitness was -0.965 ± 0.087.
As for DEDELTGILKKLSLEKYQPIFEEQEVDMEAFLTLTDGQLKELGIKTDGSRQQILAAISELNAG [D38Q], the abundance fitness is -0.165 ± 0.1.
In the case of DEDELTGILKKLSLEKYQPIFEEQEVDMEAFLTLTDGDLKELGIKTDGSRQHILAAISELNAG [Q52H], the abundance fitness is -0.155 ± 0.094.
Turning to DEDELTGILKKLSLEKYQPIFEEQEVDMEAFYTLTDGDLKELGIKTDGSRQQILAAISELNAG [L32Y], the abundance fitness was -0.334 ± 0.073.
The value for DEDELTGILKKLSLEKYQPIFEEQEVDMEAFLTLTDGDLKELGIKTDGSRQQILAAISEANAG [L60A] was -0.147 ± 0.041; that for DEDELTGILKKLSLEKYQPIFEEQEVDMEAFLTLTDLDLKELGIKTDGSRQQILAAISELNAG [G37L] was -0.049 ± 0.039.
DEDELTGILKKLSLEKYQPIFEEQEVDMEAFLTLTDFDLKELGIKTDGSRQQILAAISELNAG [G37F]: the abundance fitness is -0.051 ± 0.066.
Consider DEDELTGILKKLSLEKYQPIFEEQEVDMEAFLTLTDGDLKELTIKTDGSRQQILAAISELNAG [G43T], for which the abundance fitness was -0.675 ± 0.081.
